Assay results from paper PMC2710984.

Molecular target: GST–BIR3 fusion protein (XIAP BIR3 domain)
Assay: FMAT bead-based fluorescence competition assay

IC50: > 10 µM
Substance: Smac N-terminal tripeptide AVP (compound 5)
